Two molecules from paper PMC7835374 (Nature Communications, 2021) can be followed below.

This experiment concerns the target T1, hemagglutinin H3 (A/Victoria/361/2011), trypsin-cleaved HA1/HA2 trimer for crystallization (Influenza A virus A/Victoria/361/2011 …, UniProt A0A097PF39, strain, N-linked glycans (a group 2-specific sugar at position 38 of HA1)).
T1 construct: copies: 3 + 3
The experiment in a line: crystal structure. The settings on record: both partners purified.

B1: 3I14 fragment antigen-binding region (Fab) (Fab, V domains shown)
VH: QVQLLESGGGVVQPGRSLRLSCAASGFTFSNYGMHWVRQAPGKGLEWVAIISFDGSKKYYANSVKGRSTISRDNSKNTLSLQMNSLGPEDTALYYCAKLPSPYYFDSRFVWVAASAFHFWGQGILVTVSS
VL: NFMLTQPPSASGTPGQRVTISCSGSSSNIGGNTVHWFQQLPGTAPKLLIYTNSLRPSGVPDRFSGSKSGTSASLAISGLQSEDEADYYCAAWDDSLNGQVFGGGTKLTVL
As to B1, the binding result was “binds”.

B2: 3I14^D93N Fab (Fab, V domains shown)
VH: QVQLLESGGGVVQPGRSLRLSCAASGFTFSNYGMHWVRQAPGKGLEWVAIISFDGSKKYYANSVKGRSTISRDNSKNTLSLQMNSLGPEDTALYYCAKLPSPYYFDSRFVWVAASAFHFWGQGILVTVSS
VL: LTQPPSASGTPGQRVTISCSGSSSNIGGNTVHWFQQLPGTAPKLLIYTNSLRPSGVPDRFSGSKSGTSASLAISGLQSEDEADYYCAAWDNSLNGQVFGGGTKLTVL
For B2, the binding result is “binds”.
